Test [1] has as its target FCGR1AECDHis (monomeric extracellular domain of FcγRIA) (Homo sapiens (Human), UniProt P12314 16-292). Briefly: ELISA, coated FCGR1AECD-His, 20 ug/mL antibody. A general note: An ELISA detects its analyte on a solid surface through an enzyme-linked reagent.
The target in test [2] is T1, diFCGR2AH-HisBAP (dimeric extracellular domain of FcγRIIA allotype 131H) (Homo sapiens (Human), UniProt P12318 34-215, C-terminally biotinylated).
T1 construct: dimeric, His-tagged, C-terminally biotinylated ECD; also called IIA-131H
T1 sequence: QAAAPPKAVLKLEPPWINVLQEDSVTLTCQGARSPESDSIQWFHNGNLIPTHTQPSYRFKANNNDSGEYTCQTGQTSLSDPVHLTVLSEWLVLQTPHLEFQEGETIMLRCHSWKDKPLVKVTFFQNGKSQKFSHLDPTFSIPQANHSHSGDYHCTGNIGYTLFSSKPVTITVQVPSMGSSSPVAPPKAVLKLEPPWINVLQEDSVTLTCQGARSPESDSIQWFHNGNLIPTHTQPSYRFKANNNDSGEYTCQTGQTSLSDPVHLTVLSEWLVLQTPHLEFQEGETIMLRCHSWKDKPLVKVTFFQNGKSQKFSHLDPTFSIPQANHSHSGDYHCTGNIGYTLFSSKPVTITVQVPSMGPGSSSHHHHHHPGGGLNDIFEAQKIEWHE
In words: ELISA, captured antibody, dimeric biotinylated FcγR ECD.

Test [3] has as its target T2, diFCGR2AR-HisBAP (dimeric extracellular domain of FcγRIIA allotype 131R) (Homo sapiens (Human), UniProt P12318 36-215, C-terminally biotinylated).
T2 construct: dimeric, His-tagged, C-terminally biotinylated ECD; also called IIA-131R
T2 chain: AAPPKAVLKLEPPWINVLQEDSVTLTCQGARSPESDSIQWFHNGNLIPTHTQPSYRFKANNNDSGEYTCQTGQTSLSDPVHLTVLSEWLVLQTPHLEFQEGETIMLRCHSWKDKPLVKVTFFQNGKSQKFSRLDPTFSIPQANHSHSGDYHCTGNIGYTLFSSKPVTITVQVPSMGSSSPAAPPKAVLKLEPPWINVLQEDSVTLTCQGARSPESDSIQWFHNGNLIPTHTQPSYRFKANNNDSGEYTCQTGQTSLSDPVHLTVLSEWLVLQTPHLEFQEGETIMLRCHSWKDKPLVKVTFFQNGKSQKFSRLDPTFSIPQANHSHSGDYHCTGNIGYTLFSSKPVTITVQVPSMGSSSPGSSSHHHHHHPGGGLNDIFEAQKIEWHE
Described as above.

Test [4] addresses T3, diFCGR2B-HisBAP (dimeric extracellular domain of FcγRIIB) (Homo sapiens (Human), UniProt P31994 44-223, C-terminally biotinylated).
T3 construct: dimeric, His-tagged, C-terminally biotinylated ECD
T3 sequence: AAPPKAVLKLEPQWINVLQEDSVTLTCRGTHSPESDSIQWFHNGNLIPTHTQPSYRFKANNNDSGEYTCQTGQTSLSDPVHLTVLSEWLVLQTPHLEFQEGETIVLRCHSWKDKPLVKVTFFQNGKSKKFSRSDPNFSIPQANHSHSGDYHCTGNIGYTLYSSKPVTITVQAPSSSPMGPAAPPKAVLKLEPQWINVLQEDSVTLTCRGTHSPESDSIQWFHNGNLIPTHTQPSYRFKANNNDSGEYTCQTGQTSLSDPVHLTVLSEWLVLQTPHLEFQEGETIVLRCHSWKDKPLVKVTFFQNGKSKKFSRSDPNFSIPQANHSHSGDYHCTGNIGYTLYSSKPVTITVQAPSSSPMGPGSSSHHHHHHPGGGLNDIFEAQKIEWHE
The test is described as above.

Test [5] addresses T4, diFCGR3AF-HisBAP (dimeric extracellular domain of FcγRIIIA allotype 158F) (C-terminally biotinylated).
T4 construct: dimeric, His-tagged, C-terminally biotinylated ECD; also called IIIA-158F
Described as above.

Test [6] has as its target T5, diFCGR3AV-HisBAP (dimeric extracellular domain of FcγRIIIA allotype 158V) (C-terminally biotinylated).
T5 construct: dimeric, His-tagged, C-terminally biotinylated ECD; also called IIIA-158V
Described as above.

Test [7] deals with T1, diFCGR2AH-HisBAP (dimeric extracellular …). Briefly: FcγR ELISA, 20 ug/mL antibody.
The target of test [8] is T2, diFCGR2AR-HisBAP (dimeric extracellular …). In words: FcγR ELISA, 20 ug/mL antibody.
The target of test [9] is T3, diFCGR2B-HisBAP (dimeric extracellular …). In words: FcγR ELISA, 20 ug/mL antibody.
The target in test [10] is T1, diFCGR2AH-HisBAP (dimeric extracellular …). In words: ELISA, captured antibody 20 ug/mL, dimeric biotinylated FcγR ECD.
The target of test [11] is T2, diFCGR2AR-HisBAP (dimeric extracellular …). The description is as above.
For test [12], the target named is T3, diFCGR2B-HisBAP (dimeric extracellular …). The test is described as above.
Another test has as its target T6, C1q (human, UniProt P02745 23-245; P02746 28-253; P02747 29-245).
T6 construct: native C1q in 20% normal human serum, detected with rabbit anti-human C1q-FITC on antibody-opsonized Wien 133 cells; also called human C1q from normal human serum
In words: flow cytometry of C1q on antibody-opsonized Wien 133 cells, 20% NHS on ice. Background: Flow cytometry measures light scatter and fluorescence of single cells or particles in a stream.

This is an account of results in US20210238296A1 (Genmab, published 2021).

FCGR1AECDHis (monomeric extracellular domain of FcγRIA), sequence (P12314 other isoform, or with tags, fused parts or gaps limits assumed): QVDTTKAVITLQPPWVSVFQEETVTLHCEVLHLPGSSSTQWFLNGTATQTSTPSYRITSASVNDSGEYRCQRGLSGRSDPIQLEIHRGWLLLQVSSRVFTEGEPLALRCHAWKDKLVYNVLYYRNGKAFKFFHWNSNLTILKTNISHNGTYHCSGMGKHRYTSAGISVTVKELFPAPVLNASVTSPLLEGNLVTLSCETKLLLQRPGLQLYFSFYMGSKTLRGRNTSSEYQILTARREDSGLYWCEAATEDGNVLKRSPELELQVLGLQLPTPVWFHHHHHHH
T6 sequence (P02745 23-245 limits assumed, chain 1 of 3): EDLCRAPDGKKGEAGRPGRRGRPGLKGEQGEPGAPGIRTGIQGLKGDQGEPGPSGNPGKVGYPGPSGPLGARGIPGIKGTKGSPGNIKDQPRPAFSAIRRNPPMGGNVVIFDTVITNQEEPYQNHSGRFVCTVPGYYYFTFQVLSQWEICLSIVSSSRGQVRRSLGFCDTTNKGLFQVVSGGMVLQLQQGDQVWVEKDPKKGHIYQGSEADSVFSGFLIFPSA
T6 sequence (P02746 28-253 limits assumed, chain 2 of 3): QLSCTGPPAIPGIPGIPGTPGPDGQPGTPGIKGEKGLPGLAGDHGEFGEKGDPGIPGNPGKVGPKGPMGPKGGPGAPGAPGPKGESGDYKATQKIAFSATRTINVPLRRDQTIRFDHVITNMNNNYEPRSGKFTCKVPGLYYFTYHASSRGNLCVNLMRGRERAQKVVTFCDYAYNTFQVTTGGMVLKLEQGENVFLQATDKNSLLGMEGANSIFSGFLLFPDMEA
T6 sequence (P02747 29-245 limits assumed, chain 3 of 3): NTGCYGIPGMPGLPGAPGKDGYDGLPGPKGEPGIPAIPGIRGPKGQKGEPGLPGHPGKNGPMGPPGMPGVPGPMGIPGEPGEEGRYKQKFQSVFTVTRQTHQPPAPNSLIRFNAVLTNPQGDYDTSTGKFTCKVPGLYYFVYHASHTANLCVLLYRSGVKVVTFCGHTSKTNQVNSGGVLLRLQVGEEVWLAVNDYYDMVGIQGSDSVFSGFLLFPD

B1: IgG1-CAMPATH-1H-E430G-K439E-G236R (antibody)
heavy: QVQLQESGPGLVRPSQTLSLTCTVSGFTFTDFYMNWVRQPPGRGLEWIGFIRDKAKGYTTEYNPSVKGRVTMLVDTSKNQFSLRLSSVTAADTAVYYCAREGHTAAPFDYWGQGSLVTVSSASTKGPSVFPLAPSSKSTSGGTAALGCLVKDYFPEPVTVSWNSGALTSGVHTFPAVLQSSGLYSLSSVVTVPSSSLGTQTYICNVNHKPSNTKVDKRVEPKSCDKTHTCPPCPAPELLRGPSVFLFPPKPKDTLMISRTPEVTCVVVDVSHEDPEVKFNWYVDGVEVHNAKTKPREEQYNSTYRVVSVLTVLHQDWLNGKEYKCKVSNKALPAPIEKTISKAKGQPREPQVYTLPPSREEMTKNQVSLTCLVKGFYPSDIAVEWESNGQPENNYKTTPPVLDSDGSFFLYSKLTVDKSRWQQGNVFSCSVMHGALHNHYTQESLSLSPGK
light: not shown
notes: also called IgG1-CAMPATH-1H-G236R-E430G-K439E; IgG1-CAMPATH-E430G-K439E-G236R
In the case of B1, the binding result in test [1] is reported as “binds”; in test [2], “no binding (tested: 20 µg/mL)”; in test [3], “no binding (tested: 20 µg/mL)”; in [4], “no binding (tested: 20 µg/mL)”; in [5], “no binding (tested: 20 µg/mL)”; in [6], “no binding (tested: 20 µg/mL)”.

B2: IgG1-CAMPATH-1H-E430G-K439E-G237T (antibody)
heavy: QVQLQESGPGLVRPSQTLSLTCTVSGFTFTDFYMNWVRQPPGRGLEWIGFIRDKAKGYTTEYNPSVKGRVTMLVDTSKNQFSLRLSSVTAADTAVYYCAREGHTAAPFDYWGQGSLVTVSSASTKGPSVFPLAPSSKSTSGGTAALGCLVKDYFPEPVTVSWNSGALTSGVHTFPAVLQSSGLYSLSSVVTVPSSSLGTQTYICNVNHKPSNTKVDKRVEPKSCDKTHTCPPCPAPELLGTPSVFLFPPKPKDTLMISRTPEVTCVVVDVSHEDPEVKFNWYVDGVEVHNAKTKPREEQYNSTYRVVSVLTVLHQDWLNGKEYKCKVSNKALPAPIEKTISKAKGQPREPQVYTLPPSREEMTKNQVSLTCLVKGFYPSDIAVEWESNGQPENNYKTTPPVLDSDGSFFLYSKLTVDKSRWQQGNVFSCSVMHGALHNHYTQESLSLSPGK
light: not shown
notes: also called IgG1-CD52-Campath-G237T-E430G-K439E
Consider B2, for which the binding result is given as “binds” in test [1]; “no binding (tested: 20 µg/mL)” in test [2]; “no binding (tested: 20 µg/mL)” in test [3]; “no binding (tested: 20 µg/mL)” in [4]; “no binding (tested: 20 µg/mL)” in test [5]; “no binding (tested: 20 µg/mL)” in test [6].

B3: IgG1-CAMPATH-1H-E430G-K439E-G237Q (antibody)
heavy: QVQLQESGPGLVRPSQTLSLTCTVSGFTFTDFYMNWVRQPPGRGLEWIGFIRDKAKGYTTEYNPSVKGRVTMLVDTSKNQFSLRLSSVTAADTAVYYCAREGHTAAPFDYWGQGSLVTVSSASTKGPSVFPLAPSSKSTSGGTAALGCLVKDYFPEPVTVSWNSGALTSGVHTFPAVLQSSGLYSLSSVVTVPSSSLGTQTYICNVNHKPSNTKVDKRVEPKSCDKTHTCPPCPAPELLGQPSVFLFPPKPKDTLMISRTPEVTCVVVDVSHEDPEVKFNWYVDGVEVHNAKTKPREEQYNSTYRVVSVLTVLHQDWLNGKEYKCKVSNKALPAPIEKTISKAKGQPREPQVYTLPPSREEMTKNQVSLTCLVKGFYPSDIAVEWESNGQPENNYKTTPPVLDSDGSFFLYSKLTVDKSRWQQGNVFSCSVMHGALHNHYTQESLSLSPGK
light: not shown
notes: also called IgG1-CD52-Campath-G237Q-E430G-K439E
Regarding B3, the binding result in [1] is “binds”.

B4: IgG1-CAMPATH-1H-E430G-K439E-K322A (antibody)
heavy: QVQLQESGPGLVRPSQTLSLTCTVSGFTFTDFYMNWVRQPPGRGLEWIGFIRDKAKGYTTEYNPSVKGRVTMLVDTSKNQFSLRLSSVTAADTAVYYCAREGHTAAPFDYWGQGSLVTVSSASTKGPSVFPLAPSSKSTSGGTAALGCLVKDYFPEPVTVSWNSGALTSGVHTFPAVLQSSGLYSLSSVVTVPSSSLGTQTYICNVNHKPSNTKVDKRVEPKSCDKTHTCPPCPAPELLGGPSVFLFPPKPKDTLMISRTPEVTCVVVDVSHEDPEVKFNWYVDGVEVHNAKTKPREEQYNSTYRVVSVLTVLHQDWLNGKEYKCAVSNKALPAPIEKTISKAKGQPREPQVYTLPPSREEMTKNQVSLTCLVKGFYPSDIAVEWESNGQPENNYKTTPPVLDSDGSFFLYSKLTVDKSRWQQGNVFSCSVMHGALHNHYTQESLSLSPGK
light: not shown
notes: also called IgG1-CAMPATH-1H-K322A-E430G-K439E
Consider B4, for which the binding result in test [7], in test [8], in test [9] and in test [1] was “binds” throughout.

B5: IgG1-CAMPATH-1H-E430G-K439E-G237R (antibody)
heavy: QVQLQESGPGLVRPSQTLSLTCTVSGFTFTDFYMNWVRQPPGRGLEWIGFIRDKAKGYTTEYNPSVKGRVTMLVDTSKNQFSLRLSSVTAADTAVYYCAREGHTAAPFDYWGQGSLVTVSSASTKGPSVFPLAPSSKSTSGGTAALGCLVKDYFPEPVTVSWNSGALTSGVHTFPAVLQSSGLYSLSSVVTVPSSSLGTQTYICNVNHKPSNTKVDKRVEPKSCDKTHTCPPCPAPELLGRPSVFLFPPKPKDTLMISRTPEVTCVVVDVSHEDPEVKFNWYVDGVEVHNAKTKPREEQYNSTYRVVSVLTVLHQDWLNGKEYKCKVSNKALPAPIEKTISKAKGQPREPQVYTLPPSREEMTKNQVSLTCLVKGFYPSDIAVEWESNGQPENNYKTTPPVLDSDGSFFLYSKLTVDKSRWQQGNVFSCSVMHGALHNHYTQESLSLSPGK
light: not shown
notes: also called IgG1-CD52-Campath-G237R-E430G-K439E
For the molecule B5, the binding result in [1] is listed as “binds”.

B6: IgG1-11B8-E430G-S440K-K326A (antibody)
heavy: EVQLVQSGGGLVHPGGSLRLSCTGSGFTFSYHAMHWVRQAPGKGLEWVSIIGTGGVTYYADSVKGRFTISRDNVKNSLYLQMNSLRAEDMAVYYCARDYYGAGSFYDGLYGMDVWGQGTTVTVSSASTKGPSVFPLAPSSKSTSGGTAALGCLVKDYFPEPVTVSWNSGALTSGVHTFPAVLQSSGLYSLSSVVTVPSSSLGTQTYICNVNHKPSNTKVDKRVEPKSCDKTHTCPPCPAPELLGGPSVFLFPPKPKDTLMISRTPEVTCVVVDVSHEDPEVKFNWYVDGVEVHNAKTKPREEQYNSTYRVVSVLTVLHQDWLNGKEYKCKVSNAALPAPIEKTISKAKGQPREPQVYTLPPSREEMTKNQVSLTCLVKGFYPSDIAVEWESNGQPENNYKTTPPVLDSDGSFFLYSKLTVDKSRWQQGNVFSCSVMHGALHNHYTQKKLSLSPGK
light: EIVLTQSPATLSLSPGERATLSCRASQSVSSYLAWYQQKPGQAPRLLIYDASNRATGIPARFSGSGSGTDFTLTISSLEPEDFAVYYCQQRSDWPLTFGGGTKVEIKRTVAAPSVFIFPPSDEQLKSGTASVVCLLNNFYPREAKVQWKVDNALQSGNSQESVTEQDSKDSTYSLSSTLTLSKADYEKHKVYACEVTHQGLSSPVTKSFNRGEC
notes: also called IgG1-11B8-K326A-E430G-S440K
Consider B6, for which the binding result (in test [10]; in test [11]; in test [12]; with C1q) was “binds” throughout.
